For test [1], the target named is thermostabilized human ETB receptor (ETB-Y5), construct with an internal FLAG epitope tag (human) (UniProt P24530).
Test [2] has as its target thermostabilized human ETB receptor (ETB-Y5) fused to SmBiT (human) (UniProt P24530).
In test [3] the target is T1, human ETA receptor (human) (UniProt P25101).
T1 sequence: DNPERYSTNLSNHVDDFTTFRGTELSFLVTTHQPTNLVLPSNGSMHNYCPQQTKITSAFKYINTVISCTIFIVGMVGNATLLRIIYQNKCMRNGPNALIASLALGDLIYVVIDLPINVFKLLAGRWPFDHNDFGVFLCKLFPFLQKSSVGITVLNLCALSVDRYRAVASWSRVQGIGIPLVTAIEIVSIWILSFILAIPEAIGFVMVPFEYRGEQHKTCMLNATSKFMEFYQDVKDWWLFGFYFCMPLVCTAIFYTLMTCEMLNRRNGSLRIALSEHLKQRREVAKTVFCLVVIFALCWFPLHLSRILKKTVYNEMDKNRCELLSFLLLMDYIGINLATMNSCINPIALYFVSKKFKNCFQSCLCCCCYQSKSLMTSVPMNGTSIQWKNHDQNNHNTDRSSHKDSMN

For test [4], the target named is human ETB receptor, wild type, fused to SmBiT (ETB-SmBiT) (human) (UniProt P24530).
Test [5] concerns the target human ETB receptor, wild type, construct with an internal FLAG epitope tag (human) (UniProt P24530).
Test [6] has as its target human ETB receptor L252H I254T double mutant, construct with an internal FLAG epitope tag (human) (UniProt P24530).
Test [7] deals with T2, human ETA receptor fused to SmBiT (ETA-SmBiT) (human) (UniProt P25101).
T2 sequence: T1 sequence

“IRL1620 (N-Suc-[E9, A11, 15] ET-1(8-21)) (peptide)”: the figures for the Emax, TGFα shedding assay, percent of that of ET-1 in test [1] and in test [5] were 84% and 88%, respectively. The Emax, NanoBiT β-arrestin recruitment assay, percent of that of ET-1 came out at 85% in test [2] and 87% in test [4]. For the same substance, the AP-TGFα release (TGFα shedding assay), no activation at the concentration tested in test [3] was above 320 nM. The EC50, AP-TGFα release (TGFα shedding assay, G-protein activation), HEK293 cells in test [5] was 110 pM. The same substance came in with a change of EC50 against the wild type receptor, TGFα shedding assay in test [6] of 2 fold.
Regarding “endothelin-3 (from UniProt P14138 97-117) (peptide)”, in test [7], the EC50 against that of ET-1, NanoBiT β-arrestin recruitment assay stood at 5 fold. Moreover, the EC50 against that of ET-1, TGFα shedding assay in test [3] was 5 fold.

These data come from publication doi:10.1101/343756.
